Data from patent publication US20110091994A1, “Methods for Screening Compounds for Treating and/or Preventing an Hepatitis C Virus Infection” (priority 2008, published 2011).

B1: PABPN1 (protein, UniProt Q86U42 2-306, looked up)
Polyadenylate-binding protein …: AAAAAAAAAAGAAGGRGSGPGRRRHLVPGAGGEAGEGAPGGAGDYGNGLESEELEPEELLLEPEPEPEPEEEPPRPRAPPGAPGPGPGSGAPGSQEEEEEPGLVEGDPGDGAIEDPELEAIKARVREMEEEAEKLKELQNEVEKQMNMSPPPGNAGPVIMSIEEKMEADARSIYVGNVDYGATAEELEAHFHGCGSVNRVTILCDKFSGHPKGFAYIEFSDKESVRTSLALDESLFRGRQIKVIPKRTNRPGISTTDRGFPRARYRARTTNYNSSRSRFYSGFNSRPRGRVYRGRARATSWYSPY
B2: PRRC1 (protein, UniProt Q96M27 1-445, looked up)
Protein PRRC1: MMEESGIETTPPGTPPPNPAGLAATAMSSTPVPLAATSSFSSPNVSSMESFPPLAYSTPQPPLPPVRPSAPLPFVPPPAVPSVPPLVTSMPPPVSPSTAAAFGNPPVSHFPPSTSAPNTLLPAPPSGPPISGFSVGSTYDITRGHAGRAPQTPLMPSFSAPSGTGLLPTPITQQASLTSLAQGTGTTSAITFPEEQEDPRITRGQDEASAGGIWGFIKGVAGNPMVKSVLDKTKHSVESMITTLDPGMAPYIKSGGELDIVVTSNKEVKVAAVRDAFQEVFGLAVVVGEAGQSNIAPQPVGYAAGLKGAQERIDSLRRTGVIHEKQTAVSVENFIAELLPDKWFDIGCLVVEDPVHGIHLETFTQATPVPLEFVQQAQSLTPQDYNLRWSGLLVTVGEVLEKSLLNVSRTDWHMAFTGMSRRQMIYSAARAIAGMYKQRLPPRTV
B3: TBXAS1 (protein, UniProt P24557 1-533, looked up)
Thromboxane-A synthase: MEALGFLKLEVNGPMVTVALSVALLALLKWYSTSAFSRLEKLGLRHPKPSPFIGNLTFFRQGFWESQMELRKLYGPLCGYYLGRRMFIVISEPDMIKQVLVENFSNFTNRMASGLEFKSVADSVLFLRDKRWEEVRGALMSAFSPEKLNEMVPLISQACDLLLAHLKRYAESGDAFDIQRCYCNYTTDVVASVAFGTPVDSWQAPEDPFVKHCKRFFEFCIPRPILVLLLSFPSIMVPLARILPNKNRDELNGFFNKLIRNVIALRDQQAAEERRRDFLQMVLDARHSASPMGVQDFDIVRDVFSSTGCKPNPSRQHQPSPMARPLTVDEIVGQAFIFLIAGYEIITNTLSFATYLLATNPDCQEKLLREVDVFKEKHMAPEFCSLEEGLPYLDMVIAETLRMYPPAFRFTREAAQDCEVLGQRIPAGAVLEMAVGALHHDPEHWPSPETFNPERFTAEARQQHRPFTYLPFGAGPRSCLGVRLGLLEVKLTLLHVLHKFRFQACPETQVPLQLESKSALGPKNGVYIKIVSR
B4: SYNPO2 (protein, UniProt Q9UMS6 1-1093, looked up)
Synaptopodin-2: MGTGDFICISMTGGAPWGFRLQGGKEQKQPLQVAKIRNQSKASGSGLCEGDEVVSINGNPCADLTYPEVIKLMESITDSLQMLIKRPSSGISEALISENENKNLEHLTHGGYVESTTLQIRPATKTQCTEFFLAPVKTEVPLAENQRSGPDCAGSLKEETGPSYQRAPQMPDSQRGRVAEELILREKVEAVQPGPVVELQLSLSQERHKGASGPLVALPGAEKSKSPDPDPNLSHDRIVHINSIPTNEKADPFLRSSKIIQISSGRELRVIQESEAGDAGLPRVEVILDCSDRQKTEGCRLQAGKECVDSPVEGGQSEAPPSLVSFAVSSEGTEQGEDPRSEKDHSRPHKHRARHARLRRSESLSEKQVKEAKSKCKSIALLLTDAPNPNSKGVLMFKKRRRRARKYTLVSYGTGELEREADEEEEGDKEDTCEVAFLGASESEVDEELLSDVDDNTQVVNFDWDSGLVDIEKKLNRGDKMEMLPDTTGKGALMFAKRRERMDQITAQKEEDKVGGTPSREQDAAQTDGLRTTTSYQRKEEESVRTQSSVSKSYIEVSHGLGHVPQQNGFSGTSETANIQRMVPMNRTAKPFPGSVNQPATPFSPTRNMTSPIADFPAPPPYSAVTPPPDAFSRGVSSPIAGPAQPPPWPQPAPWSQPAFYDSSERIASRDERISVPAKRTGILQEAKRRSTTKPMFTFKEPKVSPNPELLSLLQNSEGKRGTGAGGDSGPEEDYLSLGAEACNFMQSSSAKQKTPPPVAPKPAVKSSSSQPVTPVSPVWSPGVAPTQPPAFPTSNPSKGTVVSSIKIAQPSYPPARPASTLNVAGPFKGPQAAVASQNYTPKPTVSTPTVNAVQPGAVGPSNELPGMSGRGAQLFAKRQSRMEKYVVDSDTVQAHAARAQSPTPSLPASWKYSSNVRAPPPVAYNPIHSPSYPLAALKSQPSAAQPSKMGKKKGKKPLNALDVMKHQPYQLNASLFTFQPPDAKDGLPQKSSVKVNSALAMKQALPPRPVNAASPTNVQASSVYSVPAYTSPPSFFAEASSPVSASPVPVGIPTSPKQESASSSYFVAPRPKFSAKKSGVTIQVWKPSVVEE
B5: FBF1 (protein, UniProt Q8TES7 1-1133, looked up)
Fas-binding factor 1: MAPKTKKGCKVTLPEKPVKLASHTRDTTGVSQMFPSSKARTKSLLGDDVFSTMAGLEEADAEVSGISEADPQALLQAMKDLDGMDADILGLKKSNSAPSKKAAKDPGKGELPNHPKPAGGAIPTKKSLPSPSSSGHQNRRFSSEDLEDPLRGLLSYDEGGITKQPPVTQSKTASDKSPSTVRDQGPSIPLTPGDTPIRKKEELLFDDGDDIMATLGFGDSPKAEKRQIGDQEGPRPARSTLDELLGRGMATKLLARPGTGEHREFKLDKKYQRPQDSEDMWGDEDFTFGAYQPTVVSSEGRQSRRQSVSRFFADSGADPKGEPGSKQSPPMASSPIQPRKGGADWLGLKDEDLDLFPASPTREAHRESSVPVTPSVPPPASQHSTPAGLPPSRAKPPTEGAGSPAKASQASKLRASKEEKEDWLSHALSRKKSQGLAREQHAGTSEGLHLAGTAGHPPSGSQPLTSTQGLEHAAAGGSSGTTARERPCVRPGVSGSPVTQNHAASALPTGSPKRGTAPGDLSATEPATCFPSTQKPTEPSVPVQPLLPESLARSLLPSTEYQKQLLAAQVQLQCSPAELQAELLHSQARLAELEAQVRKLELERAQHELLLGSLQQQHQADLELIESAHRSRIKVLETSYQQREERLRRENEELSARYLSQCQEAEQARAELTAQHQRRLAAIAQEKDQEMERLRELQRASILDMRRDHEEQLQRLKLLKDREVDAATSATSHTRSLNSIIHQMEKFSSSLHELSSRVEASHLTTSQERELGIRQRDEQLRALQERLGQQQRDMEEERSRQQEVIGKMEARLNEQSRLLEQERWRVTAEQSKAESMQRALEEQRKVTAQQMAMERAELERAKSALLEEQKSVMLKCGEERRRLAAEWAEFSAQQKLSKERAEREAERALQVDTQREGTLISLAKQAELKIRASELRAEEKQLAAERAALEQERQELRLEKERINATALRVKLRAEEVESMSKVASEKYEEGERALREAQQVQAEQQARLQAVQQQQERLRKQEQHMHQEHLSLAQQRLQLDRARQDLPSSLVGLFPRAQGPAASSQSALMPPAPTTRWCSQPPTGLDPSPLHLHARLALLRHMAEQDRDFLENEQFFLETLKKGSYNLTSHSA
B6: NUCB1 (protein, UniProt Q02818 27-461, looked up)
Nucleobindin-1: VPLERGAPNKEETPATESPDTGLYYHRYLQEVIDVLETDGHFREKLQAANAEDIKSGKLSRELDFVSHHVRTKLDELKRQEVSRLRMLLKAKMDAEQDPNVQVDHLNLLKQFEHLDPQNQHTFEARDLELLIQTATRDLAQYDAAHHEEFKRYEMLKEHERRRYLESLGEEQRKEAERKLEEQQRRHREHPKVNVPGSQAQLKEVWEELDGLDPNRFNPKTFFILHDINSDGVLDEQELEALFTKELEKVYDPKNEEDDMREMEEERLRMREHVMKNVDTNQDRLVTLEEFLASTQRKEFGDTGEGWETVEMHPAYTEEELRRFEEELAAREAELNAKAQRLSQETEALGRSQGRLEAQKRELQQAVLHMEQRKQQQQQQQGHKAPAAHPEGQLKFHPDTDDVPVPAPAGDQKEVDTSEKKLLERLPEVEVPQHL

molecular target: T1, HCV ORFs (Gal4-DB fusions) (Hepatitis C virus genotype 1b, UniProt Q9WMX2); assay type: binding, HCV genotype 1b, isolate con1; conditions: HCV protein CORE as bait; human protein as prey
T1 construct: expressed in transfected cells; host or cells: Saccharomyces cerevisiae MAV203 (IMAP1) / AH109 (IMAP2)
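Also: yeast two-hybrid screens using HCV genotype 1b proteins fused to Gal4-DB as baits against prey cDNA libraries from human spleen and foetal brain, IMAP1 via transformation and IMAP2 via mating.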

Molecule	IMAP Y2H IMAP2 (number of IST)
B1	1

same assay, conditions: HCV protein NS3 as bait; human protein as prey

Molecule	IMAP Y2H IMAP2 (number of IST)
B2	1
B3	1
B4	1
B5	3

same assay, conditions: HCV protein NS5A as bait; human protein as prey

Molecule	IMAP Y2H IMAP2 (number of IST)
B6	2

tested on: HCV ORFs (Gal4-DB fusions); assay type: binding, HCV genotype 1b, isolate con1; conditions: human protein listed by gene symbol; the value names the HCV protein it interacts with

Molecule	Interaction with viral protein
B1	CORE
B2	NS3
B3	NS3
B6	NS3 and NS5A
B4	NS3
B5	NS3
